{
  "source": "paper PMC4449531",
  "about": "“Identification and characterization of a novel group of legume-specific, Golgi apparatus-localized WRKY and Exo70 proteins from soybean”",
  "key": {"[1]": {"biological_target": "AtWRKY33 (Arabidopsis, UniProt Q8S8P5 1-519)", "sequence (Q8S8P5 whole entry)": "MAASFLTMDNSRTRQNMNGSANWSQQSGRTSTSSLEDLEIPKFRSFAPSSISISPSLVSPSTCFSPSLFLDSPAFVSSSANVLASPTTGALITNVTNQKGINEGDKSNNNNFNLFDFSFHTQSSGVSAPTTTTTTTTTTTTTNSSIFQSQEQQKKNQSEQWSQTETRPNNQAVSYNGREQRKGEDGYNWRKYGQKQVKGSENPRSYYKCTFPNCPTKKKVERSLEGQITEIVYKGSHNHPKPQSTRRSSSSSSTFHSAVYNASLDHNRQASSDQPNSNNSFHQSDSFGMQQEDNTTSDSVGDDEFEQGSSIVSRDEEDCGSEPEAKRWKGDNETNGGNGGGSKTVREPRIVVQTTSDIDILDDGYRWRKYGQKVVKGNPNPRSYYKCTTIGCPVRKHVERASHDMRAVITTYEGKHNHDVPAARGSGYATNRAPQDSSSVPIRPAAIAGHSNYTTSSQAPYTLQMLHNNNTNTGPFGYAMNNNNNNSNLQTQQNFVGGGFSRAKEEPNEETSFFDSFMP", "experiment": "EMSA; not stated; EMSA as in Zheng et al., 2006", "details": "protein: recombinant; tags: His (pET32a); label: labelled by Klenow fill-in"}, "[2]": {"biological_target": "T1, GmWRP1 (Glycine max, UniProt I1MBG9 1-332)", "T1 sequence": "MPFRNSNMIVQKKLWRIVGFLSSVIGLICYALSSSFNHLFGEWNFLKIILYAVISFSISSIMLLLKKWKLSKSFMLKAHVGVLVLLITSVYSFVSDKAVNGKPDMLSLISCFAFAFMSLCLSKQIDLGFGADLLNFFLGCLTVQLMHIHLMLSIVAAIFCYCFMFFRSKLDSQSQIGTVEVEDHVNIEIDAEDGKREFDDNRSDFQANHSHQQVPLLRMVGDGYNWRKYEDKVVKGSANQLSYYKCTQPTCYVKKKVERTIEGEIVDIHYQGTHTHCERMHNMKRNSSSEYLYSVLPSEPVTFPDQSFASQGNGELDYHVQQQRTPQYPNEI", "experiment": "EMSA; not stated; EMSA as in Zheng et al., 2006", "details": "protein: recombinant; tags: His (pET32a); label: labelled by Klenow fill-in"}},
  "data": [
    {"binder": "Pchn0 (dsDNA) DNA 1: GGAACTTGACCTTGACCTTAGGGCTGCAGGAATTCG DNA 2: CGAATTCCTGCAGCCCTAAGGTCAAGGTCAAGTTCC", "values": [
      {"measurement": "binding result", "setting": "[1]", "value": "binds"},
      {"measurement": "binding result", "setting": "[2]", "value": "no binding"}
    ]},
    {"binder": "mPchn0 (dsDNA) DNA 1: GGAACTTGAACTTGAACTTAGGGCTGCAGGAATTCG DNA 2: CGAATTCCTGCAGCCCTAAGTTCAAGTTCAAGTTCC", "values": [
      {"measurement": "binding result", "setting": "[1]", "value": "no binding"},
      {"measurement": "binding result", "setting": "[2]", "value": "no binding"}
    ]}
  ]
}
